Assay results as given in publication PMC9167820, “An experimental study of the effects of SNPs in the TATA boxes of the GRIN1, ASCL3 and NOS1 genes on interactions with the TATA-binding protein”.

B1: GRIN1 WT (dsDNA)
DNA 1: TGGAGGGGGACAAAGACAGGGTGGTG
DNA 2: CACCACCCTGTCTTTGTCCCCCTCCA
B2: GRIN1 -34G>A (rs1402667001) (dsDNA)
DNA 1: TGGAGGAGGACAAAGACAGGGTGGTG
DNA 2: CACCACCCTGTCTTTGTCCTCCTCCA
B3: NOS1 WT (dsDNA)
DNA 1: TGTTTCCTGATAGAAAAAAAAAATGG
DNA 2: CCATTTTTTTTTTCTATCAGGAAACA
B4: ASCL3 WT (dsDNA)
DNA 1: TCGAAAAATAAAATAAAATAAAACAT
DNA 2: ATGTTTTATTTTATTTTATTTTTCGA
B5: NOS1 -27G>A (rs1195040887) (dsDNA)
DNA 1: TGTTTCCTGATAAAAAAAAAAAATGG
DNA 2: CCATTTTTTTTTTTTATCAGGAAACA

biological target: TATA-binding protein (TBP) (Homo sapiens, UniProt P20226 1-339); experiment: EMSA (kinetic, kd/ka); 20 mM HEPES-KOH pH 7.6, 5 mM MgCl2, 70 mM KCl, 1 mM DTT, 100 ug/ml BSA, 0.01% NP-40, 5% 'XYZ' (so in the source), 25 C; TBP 0.4 nM; gel 5% PAGE Tris-glycine pH 8.3, 10 C; conditions: protein: recombinant; label: 32P; blunt
Sequence (P20226 whole entry): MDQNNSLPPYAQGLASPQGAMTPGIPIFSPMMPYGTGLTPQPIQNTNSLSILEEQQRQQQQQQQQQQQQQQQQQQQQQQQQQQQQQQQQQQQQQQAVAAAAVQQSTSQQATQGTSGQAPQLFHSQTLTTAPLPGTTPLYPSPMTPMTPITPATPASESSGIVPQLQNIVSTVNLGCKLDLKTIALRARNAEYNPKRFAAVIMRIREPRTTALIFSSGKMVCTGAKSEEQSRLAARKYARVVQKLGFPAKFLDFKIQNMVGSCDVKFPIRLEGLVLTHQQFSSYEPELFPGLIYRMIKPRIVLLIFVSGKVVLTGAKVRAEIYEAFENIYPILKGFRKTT

| Molecule | Kd |
| --- | --- |
| B1 | 320 ± 50 nM |
| B2 | 200 ± 50 nM |
| B3 | 70 ± 20 nM |
| B4 | 12 ± 5 nM |
| B5 | 59 ± 9 nM |

biological target: TATA-binding protein (TBP) (Homo sapiens) (UniProt P20226); experiment: EMSA (kinetic, kd/ka); conditions: 20 mM HEPES-KOH pH 7.6, 5 mM MgCl2, 70 mM KCl, 1 mM DTT, 100 ug/ml BSA, 0.01% NP-40, 5% 'XYZ' (so in the source), 25 C; TBP 0.4 nM; gel 5% PAGE Tris-glycine pH 8.3 …
Sequence (P20226 whole entry): as above

| Molecule | Kd |
| --- | --- |
| TCGAAAAATAAAACAAAATAAAACAT (double strand) [ASCL3 -45T>C (rs1049743008)] | 17 nM |
